The values below are quoted from earlier work in PMC13312411.

Like-named read-outs stand apart in the source and are kept apart here.

The target in data set [1] is Hsc70 (Homo sapiens) (UniProt P11142).
Data set [2] has the same target. This is another data set of the same source.

Sequence of UniProt P11142 (P11142 2-646): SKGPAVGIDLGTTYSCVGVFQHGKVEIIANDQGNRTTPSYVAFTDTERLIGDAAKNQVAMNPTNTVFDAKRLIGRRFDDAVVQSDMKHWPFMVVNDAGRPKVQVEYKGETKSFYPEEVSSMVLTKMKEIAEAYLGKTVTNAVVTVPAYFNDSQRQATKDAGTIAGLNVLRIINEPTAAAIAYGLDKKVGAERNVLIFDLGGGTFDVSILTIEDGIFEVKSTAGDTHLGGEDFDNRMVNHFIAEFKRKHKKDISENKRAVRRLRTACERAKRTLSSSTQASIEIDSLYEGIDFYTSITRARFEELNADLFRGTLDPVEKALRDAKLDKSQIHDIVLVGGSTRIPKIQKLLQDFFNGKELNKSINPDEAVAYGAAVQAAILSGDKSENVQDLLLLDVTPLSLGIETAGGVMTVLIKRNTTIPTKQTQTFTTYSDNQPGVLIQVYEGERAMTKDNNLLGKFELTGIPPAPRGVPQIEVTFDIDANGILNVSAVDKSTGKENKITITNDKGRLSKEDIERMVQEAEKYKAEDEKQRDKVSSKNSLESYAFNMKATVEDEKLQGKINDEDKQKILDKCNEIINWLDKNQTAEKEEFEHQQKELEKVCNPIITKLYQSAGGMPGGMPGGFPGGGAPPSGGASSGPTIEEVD

The Kd is the constant that tells how readily two partners part at equilibrium. For the substance “DNAJB6 J-domain JD (from UniProt O75190)”, the Kd in the data set with Hsc70 (Homo sapiens) [1] was 3 µM.

For the substance “DNAJB6 JD-GF (open) JD-GF (from UniProt O75190)”, the Kd in the data set with Hsc70 (Homo sapiens) [2] was 400 µM.
